The target in test [1] is recombinant human FcγRIIb (R&D Systems) (human) (UniProt P31994). The test is described as follows: Biacore SPR, global Langmuir fit (mean ± SD, n = 4). On the technique in general: Surface plasmon resonance follows binding to a sensor surface in real time, without labels.
The target of test [2] is FcγRIIaH (human) (UniProt P12318). The test can be described thus: Biacore SPR [cont.].
The target in test [3] is human FcγRIIIa, V158 isoform (human) (UniProt P08637). The test is described as follows: Biacore SPR [cont.].
Test [4] has as its target FcγRI (human) (UniProt P12314). The test is described as follows: Biacore SPR [cont.].
In test [5] the target is FcγRIIaR (human) (UniProt P12318). The test is described as follows: Biacore SPR [cont.].
For test [6], the target named is recombinant human FcγRIIb (R&D Systems) (human) (UniProt P31994). The test is described as follows: Biacore SPR [cont.].
In test [7] the target is FcγRIIIaF (human) (UniProt P08637). The test is described as follows: Biacore SPR [cont.].
Test [8] addresses FcγRIIb on the cell surface (UniProt P31994). The test can be described thus: binding to FcγRIIb on the cell surface.
Test [9] has as its target recombinant human FcγRIIb (R&D Systems) (human) (UniProt P31994). The test can be described thus: Biacore SPR.
Test [10] deals with FcγRIIaH (human) (UniProt P12318). The test is described as follows: Biacore SPR.
Test [11] has as its target human FcγRIIIa, V158 isoform (human) (UniProt P08637). The test is described as follows: Biacore SPR.
The target in test [12] is FcγRI (human) (UniProt P12314). The test is described as follows: Biacore SPR.
Test [13] addresses FcγRIIaR (human) (UniProt P12318). The test is described as follows: Biacore SPR.
Test [14] concerns the target FcγRIIIaF (human) (UniProt P08637). The test is described as follows: Biacore SPR.

Chain of FcγRIIIaF (human) (P08637 17-208 limits assumed): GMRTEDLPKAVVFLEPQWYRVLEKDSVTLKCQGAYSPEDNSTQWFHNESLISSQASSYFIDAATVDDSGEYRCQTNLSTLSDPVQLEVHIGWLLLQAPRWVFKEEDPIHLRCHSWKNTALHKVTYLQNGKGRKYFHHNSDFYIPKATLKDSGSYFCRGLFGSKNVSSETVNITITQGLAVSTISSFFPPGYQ
Chain of FcγRIIaH (human) (P12318 34-217): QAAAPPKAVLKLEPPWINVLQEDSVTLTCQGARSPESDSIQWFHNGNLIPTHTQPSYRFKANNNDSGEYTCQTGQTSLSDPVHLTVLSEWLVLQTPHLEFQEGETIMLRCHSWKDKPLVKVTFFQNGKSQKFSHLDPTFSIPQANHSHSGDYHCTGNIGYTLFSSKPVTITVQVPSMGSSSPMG
Chain of human FcγRIIIa, V158 isoform (human) (P08637 17-208 F176V limits assumed): as the sequence (P08637 17-208 limits assumed) above, with F160V counted along it
Chain of recombinant human FcγRIIb (R&D Systems) (human) (P31994 46-217 limits assumed): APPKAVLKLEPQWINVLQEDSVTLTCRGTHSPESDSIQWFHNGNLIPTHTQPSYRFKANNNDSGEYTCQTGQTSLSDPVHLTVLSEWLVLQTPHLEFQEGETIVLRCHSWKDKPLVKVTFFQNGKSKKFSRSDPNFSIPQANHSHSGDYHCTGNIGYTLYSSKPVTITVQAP
Chain of FcγRI (human) (P12314 16-288 limits assumed): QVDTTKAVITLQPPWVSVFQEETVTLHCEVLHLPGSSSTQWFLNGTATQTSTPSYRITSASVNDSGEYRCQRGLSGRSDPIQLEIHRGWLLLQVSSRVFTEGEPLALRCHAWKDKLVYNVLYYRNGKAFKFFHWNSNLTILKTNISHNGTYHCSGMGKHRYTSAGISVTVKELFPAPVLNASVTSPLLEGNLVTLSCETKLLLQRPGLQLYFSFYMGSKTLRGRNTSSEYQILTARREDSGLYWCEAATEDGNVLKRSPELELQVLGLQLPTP
Chain of FcγRIIb on the cell surface (P31994 43-310 limits assumed): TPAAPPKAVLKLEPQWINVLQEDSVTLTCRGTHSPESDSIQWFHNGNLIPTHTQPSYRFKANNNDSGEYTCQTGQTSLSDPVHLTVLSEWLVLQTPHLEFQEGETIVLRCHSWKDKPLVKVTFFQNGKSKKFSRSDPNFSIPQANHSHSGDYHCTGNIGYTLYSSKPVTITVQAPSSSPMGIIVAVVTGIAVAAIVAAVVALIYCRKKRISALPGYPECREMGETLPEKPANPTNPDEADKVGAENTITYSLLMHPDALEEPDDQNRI

The term Kd denotes the equilibrium constant for the complex coming apart. One may read the EC50 as the concentration needed to bring the measured effect to its halfway point. The low end stands for a more potent agent, the high end for a less potent agent. Turning to S239D/S267E (antibody), the Kd amounted to 12 nM in [1]; 510 nM with FcγRIIaH (human) [2]; 51.2 nM in test [3]; 0.0142 nM with FcγRI (human) [4]; 7.16 nM with FcγRIIaR (human) [5]; 13.3 nM in [6]. Moreover, in the test with FcγRIIIaF (human) [7], the dissociation constant Kd worked out at 516 nM. Besides, the Fold with FcγRIIaH (human) [2] was 1.27; in test [3], 3.74; in the test with FcγRI (human) [4], 23.2; in the test with FcγRIIaR (human) [5] it was 120; in [6], 111; in the test with FcγRIIIaF (human) [7] it was 2.62. In [8], this substance registered an EC50 of 2 nM. In test [8], the Fold (against native IgG1) is 220 fold. Further, the Fold (KD native IgG1/KD variant) in test [9] worked out at 150 fold.
G236D/S267E (antibody): the equilibrium dissociation constant (Kd) was 25 nM in test [1]; 2730 nM in the test with FcγRIIaH (human) [2]; 579 nM in test [3]; 3.71 nM with FcγRI (human) [4]; 26.6 nM in test [6]. In addition, the EC50 in [8] was determined as 6 nM.
Regarding L328F (antibody), in test [1], the Kd was 640 nM.
Regarding Native IgG1 (antibody), the Kd in [1] was 1800 nM; in the test with FcγRIIaH (human) [10] it was 646 nM; in test [11], 191 nM; with FcγRI (human) [12] it was 0.329 nM; in the test with FcγRIIaR (human) [13] it was 859 nM; in test [9], 1470 nM. This substance also came in with a Kd with FcγRIIIaF (human) [14] of 1350 nM. Also, the EC50 in test [8] was 440 nM.
S267E/L328F (antibody): the equilibrium dissociation constant (Kd) came out at 4.2 nM in [1]; 923 nM in the test with FcγRIIaH (human) [2]; 5040 nM in test [3]; 0.22 nM with FcγRI (human) [4]; 3.12 nM in the test with FcγRIIaR (human) [5]; 6.06 nM in test [6]. Besides, the Fold is 0.7 with FcγRIIaH (human) [2]; 0.038 in test [3]; 1.5 in the test with FcγRI (human) [4]; 275 with FcγRIIaR (human) [5]; 242 in [6]. The EC50 in test [8] stood at 1.4 nM. The Fold (against native IgG1) in test [8] was found to be 320 fold. In test [9], the Fold (KD native IgG1/KD variant) came to 430 fold.
As for S239D (antibody), the Kd in test [1] turned out to be 380 nM.
Turning to S267E (antibody), in test [8], the concentration for a half-maximal effect (EC50) is 25 nM and the Fold (against native IgG1) amounted to 18 fold. Also, in test [9], the Fold (KD native IgG1/KD variant) turned out to be 30 fold.
Take S239D/I332E (antibody): the dissociation constant (Kd) with FcγRIIaH (human) [2] is 163 nM; with FcγRI (human) [4], 0.0374 nM; in the test with FcγRIIaR (human) [5], 68.6 nM; in test [6] it was 101 nM; with FcγRIIIaF (human) [7] it was 28.2 nM.
For the substance G236D (antibody), the Kd in test [1] is 1000 nM. The Fold (KD native IgG1/KD variant) in test [9] is 1.8 fold.

Values taken from US20110189178A1.
